According to patent publication US9751932B2, “Anti-big-endothelin-1 (big-ET-1) antibodies and uses thereof” (Regeneron Pharmaceuticals, Inc., priority 2012, dated 2017):
“Also recorded” adds a separate entry of the source.

How the values were obtained:
[1] = target: T1, human big-ET-1 (SEQ ID NO:434) (Homo sapiens, UniProt P05305); assay: Surface plasmon resonance (Biacore) binding, mAb capture format, 37° C.; conditions: for ka / kd: analyte human big-ET-1, mAb capture
T1 sequence (P05305 53-90 limits assumed): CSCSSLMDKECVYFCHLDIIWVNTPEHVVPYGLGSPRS
Protocol: (§1) Measurements were conducted on a T200 Biacore instrument (Biacore Life Sciences division of GE Healthcare, Piscataway, N.J.). […] Different concentrations of small-ET-1 (SEQ ID NO:435), human big-ET-1 (SEQ ID NO:434) or mouse big-ET-1 (SEQ ID NO:437) were injected over the anti-big-ET-1 captured surfaces at a flow rate of 100 μl/min. Peptide binding was monitored for 3 min while dissociation of mAb-bound peptide was monitored for 4 min in HBST running buffer (0.01 M HEPES pH 7.4, 0.15 M NaCl, 3 mM EDTA, 0.005% v/v Surfactant P20). Kinetic association (ka) and dissociation (kd) rate constants were determined by processing and fitting the data to a 1:1 binding model using Scrubber 2.0 curve fitting software.

[2] = target: T2, mouse big-ET-1 (cleavage by mouse ECE-1) (Mus musculus, UniProt P22387); assay: NFAT luciferase reporter assay (293/ETaR/NFAT-Luc cells) for blocking of ECE-1-mediated cleavage; assay type: cell-based; conditions: read-out: Blocking IC50 20 nM mBig-ET-1 + 5 nM mECE1; human Fc mAbs (Table 5)
T2 sequence (P22387 53-91): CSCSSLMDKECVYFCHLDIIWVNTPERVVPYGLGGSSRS
Protocol: (§2) Briefly, HEK293 cell lines were generated to stably express full-length human endothelin receptor type A (ETaR) along with a luciferase reporter element [NFAT (4×)-luciferase]. A single clone was isolated and maintained in 10% FBS, DMEM, NEAA, Pen/Strep, and 500 μg/ml G418 and 100 μg/ml hygromycin B.
(§3) Both human and mouse big-ET-1 blocking experiments were allowed to incubate (37° C.; 5% CO2) overnight. The next morning these solutions were added to the 293/ETaR/NFAT-Luc cells (20,000 cells/well) and luciferase activity was detected after 5.5 hrs (37° C.; 5% CO2) using a Victor X plate reader (Perkin Elmer). The amount of luciferase activity observed under these conditions is a proportional representation of the amount of small-ET-1 generated from cleavage of either mouse or human big-ET-1.

[3] = test system: C57BL/6 mice challenged with human big-ET-1 peptide; assay: Mean arterial pressure changes after human big-ET-1 challenge in catheterized mice; assay type: in vivo, mouse
Protocol: The purpose of this Example was to evaluate the ability of an exemplary anti-big-ET-1 antibody (H2M6490N) to block […] increases in arterial pressure. Mice that had been previously infused with either blocking anti-big-ET-1 antibody or isotype control were challenged with big-ET-1 peptide. Changes in arterial pressure stemming from either big-ET-1 endogenous conversion to small-ET-1, or having its conversion blocked by circulating anti-big-ET-1 antibody, were measured. To facilitate real time measurements of arterial pressure during these experiments, mice were catheterized using standard protocols.
Briefly, naïve Taconic C57BL/6 mice (8-10 weeks of age) were anesthetized with isoflurane and the skin overlying the carotid artery and jugular vein was cut. Both the right jugular vein and left carotid artery were isolated, taking care not to damage the Vagus nerve or other blood vessels. Using standard techniques, the jugular vein was retracted and a 32-gauge needle (bent at a 90° angle) was used to puncture the vein for insertion of a saline-filled jugular vein catheter. The left carotid artery was then isolated and a Millar Micro-Tip® catheter was introduced using standard protocols. During all procedures a temperature probe was used to monitor animal body temperature, which was kept around 36.5° C. using a Gaymar heated water circulating pad. The above procedures allowed real-time pressure measurements (systolic pressure, diastolic pressure, mean arterial pressure, and body temperature) to be recorded during all big ET-1 challenge experiments.
In the first study, 150 μg (˜2 mg/kg; 1×10^−9 Moles) of H2M6490N or isotype control mAb was injected i.v. using the jugular vein port followed by a bolus of saline to flush the catheter. This caused a slight and transient drop in pressure that returned to baseline and established the T=0 for the experiment.
In a second experiment, the same experimental protocol was utilized except that H2M6490N (˜2 mg/kg; 1×10^−9 Moles) was injected subcutaneously (s.c.) into the mice 24 hrs before challenge with human big-ET-1 peptide.

[4] = target: T1, human big-ET-1 (SEQ ID NO:434); assay: MALDI-TOF detection of C-term peptide product from cleavage of big-ET-1 by mouse ECE-1; assay type: biochemical; parameters: purchased R&D Systems (mouse ECE-1 only)
Description: Matrix Assisted Laser Desorption Ionization Time of Flight (MALDI-TOF) mass spectrometry was used to determine if selected anti-big-ET-1 antibodies could block the conversion of human big-ET-1 (SEQ ID NO:434) or mouse big-ET-1 (SEQ ID NO:437) into its respective peptides in the presence of mouse endothelin converting enzyme 1 (ECE-1). Human big-ET-1 is specifically cleaved by mECE-1 at Trp-21/Val-22 forming both biologically active small-ET-1 (SEQ ID NO:435; MH^+ 2474) and a non-active C-term product (amino acids 22-38 of SEQ ID NO:434; MH^+ 1809). Mouse big-ET-1 is cleaved at Trp-21/VaI-22 into small-ET-1 (SEQ ID NO:435; MH^+ 2474) and its non-active C-term product (amino acids 22-39 of SEQ ID NO:437; MH^+ 1875). The appearance or absence of these masses, in the presence of antibody, can be monitored by MALDI-TOF. In the example below, the presence or absence of the C-term products served as an indicator for big-ET-1 cleavage since these peptides ionize more efficiently than small-ET-1 (SEQ ID NO:435; MH^+ 2474), thereby yielding a more sensitive readout.
Briefly, human or mouse big-ET-1 (0.5 μM) was mixed with antibody (2.5 μM), in phosphate buffered saline (PBS), at a 1:5 molar ratio (big-ET-1:mAb). After a 1-hr incubation (25° C.), mouse ECE-1 (R&D Systems) was added at 40 nM and the solution was placed at 37° C. Aliquots for mass spectrometry analysis were taken at 0, 15, 30 and 60 minutes. Each aliquot was desalted via C18 Ziptip (Millipore) and analyzed in reflextron-positive mode using a Bruker Ultraflextreme MALDI-TOF instrument (Bruker Daltonics).

[5] = target: T3, mouse big-ET-1 (SEQ ID NO:437) (Mus musculus, UniProt P22387); assay: Surface plasmon resonance (Biacore) binding, mAb capture format, 37° C.
T3 sequence (P22387 53-91 limits assumed): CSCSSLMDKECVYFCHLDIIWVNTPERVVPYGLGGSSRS
Protocol: as §1

[6] = target: T4, human big-ET-1 (cleavage by human ECE-1) (Homo sapiens, UniProt P05305); assay: NFAT luciferase reporter assay (293/ETaR/NFAT-Luc cells) for blocking of ECE-1-mediated cleavage; assay type: cell-based; conditions: read-out: Blocking IC50 10 nM hBig-ET-1 + 3 nM hECE1; human Fc mAbs (Table 5)
T4 sequence (P05305 53-90 limits assumed): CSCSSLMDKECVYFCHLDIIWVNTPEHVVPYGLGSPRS
Protocol: as §2, §3

B1: H4H6492N2: anti-big-ET-1 antibody, human IgG4 Fc; HCVR/LCVR SEQ ID NO: 418/426 (antibody, V domains shown)
VH: EVQLVESGGGLVKPGGSLRVSCVASGFTFSNAWMTWVRQTPGKGLEWVGRIKSRTDGGTVDYVAPVKGRFTISRDDSKNTLYLQMNSLKAEDTAVYYCRADLDYWGQGTLVTVSS
VL: DVVMTQSPLSLPVSLGQPASISCRSSQSLVHSDGITYLNWFQQRPGQSPRRLIYKISNRDSGVPDRFSGSGSGTDFTLKFSRVEAEDVGVYFCMQGTHWPYTFGQGTKLEIK
modifications: human IgG4 Fc
ka [1]: 424000 M/s | kd [1]: 0.0297 s⁻¹ | IC50 [2]: > 100 nM

B2: H2M6490N: anti-big-ET-1 antibody, mouse IgG2 Fc; HCVR/LCVR SEQ ID NO: 18/26 (antibody, V domains shown)
VH: EVQLLESGGGLVQPGGSLRLSCAASGFTFSSYAMTWVRQAPGKGLECISAISGSGYSTYYADSMKGRFSISRDNSKNTLYLQMNRLRAEDTAVYYCTKGGRILEWLLPFDFWGQGTLVTVSS
VL: DVVMTQSPLSLPVTLGQPASISCRSSQSLVYSDGNTYLIWFQQRPGQSPRRLIYKVSNRDSGVPDRFSGSGSGTDFTLIISRVEAEDVGLYYCMQGTHWPPTFGGGTKVEIK
modifications: mouse IgG2 Fc
Mean Pressure Change ([3]; Study 1: antibody 150 μg i.v., time 0 min, cumulative big-ET-1 0.00E+00 Moles): 0 mmHg | Mean Pressure Change ([3]; Study 1: antibody i.v., time 30 min, cumulative big-ET-1 3.85E−11 Moles, mAb:big-ET-1 26.0): −0.6 ± 2.6 mmHg | Mean Pressure Change ([3]; Study 1: antibody i.v., time 45 min, cumulative big-ET-1 1.16E−10 Moles, mAb:big-ET-1 8.7): −1.0 ± 3.5 mmHg | Mean Pressure Change ([3]; Study 1: antibody i.v., time 60 min, cumulative big-ET-1 2.32E−10 Moles, mAb:big-ET-1 4.3): 4.0 ± 4.7 mmHg | Mean Pressure Change ([3]; Study 1: antibody i.v., time 75 min, cumulative big-ET-1 4.66E−10 Moles, mAb:big-ET-1 2.1): 18.2 ± 9.6 mmHg | Mean Pressure Change ([3]; Study 1: antibody i.v., time 90 min, cumulative big-ET-1 8.16E−10 Moles, mAb:big-ET-1 1.2): 32.5 ± 20.8 mmHg | Mean Pressure Change ([3]; Study 1: antibody i.v., time 105 min, cumulative big-ET-1 1.28E−09 Moles, mAb:big-ET-1 0.8): 25.1 ± 8.3 mmHg | Mean Pressure Change ([3]; Study 1: antibody i.v., time 120 min, cumulative big-ET-1 1.87E−09 Moles, mAb:big-ET-1 0.5): −15.4 ± 8.2 mmHg | Mean Pressure Change ([3]; Study 2: antibody s.c. ~24 hr before challenge, time 0 min, cumulative big-ET-1 0.00E+00 Moles): 0 mmHg | Mean Pressure Change ([3]; Study 2: antibody s.c. ~24 hr before, time 30 min, cumulative big-ET-1 3.85E−11 Moles, ratio 26.0): 1.7 mmHg | Mean Pressure Change ([3]; Study 2: antibody s.c. ~24 hr before, time 45 min, cumulative big-ET-1 1.16E−10 Moles, ratio 8.7): 7.6 mmHg | Mean Pressure Change ([3]; Study 2: antibody s.c. ~24 hr before, time 60 min, cumulative big-ET-1 2.32E−10 Moles, ratio 4.3): 14.9 mmHg | Mean Pressure Change ([3]; Study 2: antibody s.c. ~24 hr before, time 75 min, cumulative big-ET-1 4.66E−10 Moles, ratio 2.1): 52.1 mmHg | Mean Pressure Change ([3]; Study 2: antibody s.c. ~24 hr before, time 90 min, cumulative big-ET-1 8.16E−10 Moles, ratio 1.2): 45.8 mmHg | Mean Pressure Change ([3]; Study 2: antibody s.c. ~24 hr before, time 105 min, cumulative big-ET-1 1.28E−09 Moles, ratio 0.8): 12.0 mmHg | arterial pressure response to human big-ET-1 challenge (in words) ([3]; ~2 mg/kg antibody, 30 min (i.v.) or 24 hr (s.c.) before challenge): maintained baseline mean arterial pressure until the amount of human big-ET-1 peptide approached the molar equivalent of antibody on board; also recorded: maintained normal arterial pressures longer than those mice that were treated with isotype control antibody; also recorded: effective in inhibiting endothelin-1-mediated elevation in arterial pressure in vivo | cleavage of human big-ET-1 by mouse ECE-1 (in words) [4]: no C-term product was detected | Detection of C-term Peptide Product, 0 min ([4]; Human big-ET-1, mouse ECE-1, 0 min): − | Detection of C-term Peptide Product, 15 min ([4]; Human big-ET-1, mouse ECE-1, 15 min): − | Detection of C-term Peptide Product, 30 min ([4]; Human big-ET-1, mouse ECE-1, 30 min): − | Detection of C-term Peptide Product, 60 min ([4]; Human big-ET-1, mouse ECE-1, 60 min): − | binding to human big-ET-1 (in words) [1]: high affinity binding | ka [1]: 209000 M/s | kd [1]: 0.00399 s⁻¹ | binding to mouse big-ET-1 (in words) [5]: did not show any binding | Kd ([5]; analyte mouse big-ET-1, mAb capture, KD=kd/ka): > 1000 nM

B3: H4H6490N2: anti-big-ET-1 antibody, human IgG4 Fc; HCVR/LCVR SEQ ID NO: 402/410 (antibody, V domains shown)
VH: EVQLLESGGGLVQPGGSLRLSCAASGFTFSSYAMTWVRQAPGKGLEWISAISGSGYSTYYADSMKGRFSISRDNSKNTLYLQMNRLRAEDTAVYYCTKGGRILEWLLPFDFWGQGTLVTVSS
VL: DVVMTQSPLSLPVTLGQPASISCRSSQSLVYSDGNTYLIWFQQRPGQSPRRLIYKVSNRDSGVPDRFSGSGSGTDFTLIISRVEAEDVGLYYCMQGTHWPPTFGGGTKVEIK
modifications: human IgG4 Fc
IC50 [2]: > 100 nM | IC50 [6]: > 100 nM
